Reference: US20240279288A1, “APPLICATION OF PLANT JAZ PROTEINS AND DERIVED POLYPEPTIDES IN PREVENTION AND TREATMENT OF HUMAN AND ANIMAL TUMORS” (ANYANG INSTITUTE OF SINO-COTTON INDUSTRY INNOVATION, priority 2021, published 2024)
Entries after “also recorded” stand apart in the source; their conditions may differ.

Assays:
GhNINJA = test: Yeast two hybrid with GhNINJA; format: binding, cotton
Description: The study on Arabidopsis had shown that the inhibition of JAZ protein on JA signaling was mainly achieved by inhibiting the transcription factor function of MYC, which had been experimentally verified by us in cotton. Based on the phylogenetic tree of Arabidopsis and cotton JAZs, we screened 6 cotton JAZs (GhJAZ1, GhJAZ7, GhJAZ9, GhJAZ10, GhJAZ11 and GhJAZ31), which were analyzed with GhMYC2, GhNINJA, GhTPL, GhHDA6, and GhCOI1 for yeast two hybrid. The amino acid sequence of GhJAZ1 was set forth in SEQ ID No. 4, and the corresponding encoding gene sequence was set forth in SEQ ID No. 39; the amino acid sequence of GhJAZ7 was set forth in SEQ ID No. 7, and the corresponding encoding gene sequence was set forth in SEQ ID No. 42; the amino acid sequence of GhJAZ9 was set forth in SEQ ID No. 2, and the corresponding encoding gene sequence was set forth in SEQ ID No. 37; the amino acid sequence of GhJAZ10 was set forth in SEQ ID No. 3, and the corresponding encoding gene sequence was set forth in SEQ ID No. 38; the amino acid sequence of GhJAZ11 was set forth in SEQ ID No. 5, and the corresponding encoding gene sequence was set forth in SEQ ID No. 40; and the amino acid sequence of GhJAZ31 was set forth in SEQ ID No. 9, and the corresponding encoding gene sequence was set forth in SEQ ID No. 44. […]

NMYC = biological target: T1, NMYC (Homo sapiens, UniProt P04198); test: CO-IP with NMYC in HEK293 cells; format: binding
T1 construct: with the full length of c-Myc and NMYC, respectively; expressed in transfected cells; host or cells: yeast Y2HGold
T1 sequence (P04198 1-464): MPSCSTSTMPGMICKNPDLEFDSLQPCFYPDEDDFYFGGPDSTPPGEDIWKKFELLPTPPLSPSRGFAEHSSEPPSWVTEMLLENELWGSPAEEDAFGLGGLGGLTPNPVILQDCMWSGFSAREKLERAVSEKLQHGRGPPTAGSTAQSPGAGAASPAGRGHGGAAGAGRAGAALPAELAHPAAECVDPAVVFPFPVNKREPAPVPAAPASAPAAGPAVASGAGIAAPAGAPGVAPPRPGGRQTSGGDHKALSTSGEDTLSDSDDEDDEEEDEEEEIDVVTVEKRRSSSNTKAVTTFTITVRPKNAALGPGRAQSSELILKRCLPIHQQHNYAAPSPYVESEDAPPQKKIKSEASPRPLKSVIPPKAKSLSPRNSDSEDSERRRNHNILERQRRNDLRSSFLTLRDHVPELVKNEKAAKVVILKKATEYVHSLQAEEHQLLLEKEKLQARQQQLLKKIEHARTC
Description: Steps of method of CO-IP experiment: Non-denaturing lysate was added to 293T cell culture plate (Pricella, Cat. No.: CL-0005), and the cells were completely lysed at 4° C. The lysate was centrifuged at 12,000 rpm for 10 min and the supernatant was collected. The corresponding antibody was added to the obtained non-denatured protein solution, which was incubated overnight at 4° C. Pierce™ protein A/G magnetic agarose (Thermo Fisher Scientific, Inc.) were washed with lysis buffer, followed by addition pre-treated beads to the cell lysate, and incubation at room temperature for 2 hours. The mixture was centrifuged at 4° C., 2,500 rpm for 5 min with supernatant removed, and the agarose beads were washed 5 times with 1 ml of lysis buffer. An appropriate amount of protein loading buffer was added to the pellet, and the sample was incubated in water bath at 100° C. for 10 min. The band of interest was detected by Western blotting.
Immunoprecipitation method (method of the experiment as Example 3) was used.

MCF7 breast cancer cells = test: Apoptosis detection (Annexin V-FITC/PI), MCF7; format: cell-based, human; conditions: 0.691 μM, 24 h, vs PBS
Description: Apoptosis detection: cells were collected in 1.5 EP tubes and centrifuged at 300 g for 5 min, with the supernatant discarded, followed by collecting the cells, washing with PBS and resuspending. 1×10^5 resuspended cells were taken and centrifuged at 300 g for 5 min, with the supernatant discarded. The cells were washed with PBS, resuspended by adding 500 μl of diluted 1×Annexin V Binding Buffer working solution, and then a staining solution of 5 μL of Annexin V-FITC and 5 μL of propidium iodide (PI) were added and mixed well by vortex, followed by incubation at room temperature in the dark for 15-20 min, and detection on the instrument. Specifically, the Annexin V-FITC/PI fluorescent dual staining cell apoptosis detection kit (Wuhan Pricella Life Science & Technology Co., Ltd., Cat. No.: P-CA-201) was used.

[1] = tested on: breast epithelial cells (MCF10A); test: CCK8 cell viability detection, MCF10A; format: cell-based; conditions: with the increase of GhJAZ1 protein concentration
Description: CCK8 cell viability detection: cell suspension was seeded in 96-well plates at a concentration of 5×10^4 cells/ml (100 μL/well). The plates were placed in the incubator for pre-culture (at 37° C., 5% CO2), and control and protein agents were added to each well 24 h after seeding. The plates were then placed in the incubator for 24 h, followed by addition of 10 μL CCK8 solution into each well and incubation of the plates in the incubator for 0.5-2 h before the absorbance measurement at 450 nm using a microplate reader.
We constructed GhJAZ1 prokaryotic expression plasmid with His-tag to express proteins (see step 2 in Example 4), and then a GhJAZ1 protein, along with 6 His tags, which was approximately 30 KD in size was found by WB detection (A in FIG. 7). The purified GhJAZ1 protein was used to treat breast cancer cells (MCF7) and breast epithelial cells (MCF10A), and the cell viability was measured with CCK8.

GhNINJA, sequence (as listed by the source): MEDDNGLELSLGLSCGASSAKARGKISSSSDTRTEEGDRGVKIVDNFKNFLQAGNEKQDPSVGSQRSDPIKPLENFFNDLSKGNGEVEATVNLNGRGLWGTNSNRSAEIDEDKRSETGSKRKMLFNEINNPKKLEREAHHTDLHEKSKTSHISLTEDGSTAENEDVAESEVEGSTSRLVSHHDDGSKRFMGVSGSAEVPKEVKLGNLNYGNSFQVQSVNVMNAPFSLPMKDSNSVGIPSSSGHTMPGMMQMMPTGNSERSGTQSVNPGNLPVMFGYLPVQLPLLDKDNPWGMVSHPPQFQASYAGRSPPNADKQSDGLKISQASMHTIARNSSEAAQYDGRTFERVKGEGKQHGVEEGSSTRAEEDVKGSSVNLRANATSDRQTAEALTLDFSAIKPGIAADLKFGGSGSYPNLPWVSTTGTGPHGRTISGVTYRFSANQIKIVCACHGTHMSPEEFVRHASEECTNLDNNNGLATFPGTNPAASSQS

B1: GhJAZ1: cotton JAZ1 protein, gene number Gh_A05G0260, sequence SEQ ID No. 4; prokaryotically expressed with His tag, about 30 KD (protein)
chain: MSSCSESTAMKPARSPEKPSFAQTCNLLSQYLKEKGSFGDLSLGMTCNVEANGTPVVPPPTMNLFPLNDKSDDVCGRNGGNPKNLTSMDLFPQQAGLASKDDSPNKLEPQTAPMTIFYGGQVIVFNDFPANKAKEIMLLASNSSSQSNNSFNPIPFTSSIARSPIESSIGVPPTSKPVHPAQRAVPGDLPIARRASLHRFLEKRKDRITAKAPYQINNSAAAPSLSGDNKSWLGLAAQSP
modifications: His tag
notes: prokaryotically expressed with His tag, about 30 KD
Question: How did the “interaction with GhNINJA” value (GhNINJA) turn out when B1 was run?
Answer: interacted

Question: And the “interaction with NMYC” value (NMYC)?
Answer: interacted

Question: What about the “apoptosis rate of cancer cells (MCF7)” value (MCF7 breast cancer cells) of the same molecule?
Answer: increased

Question: What about the “viability of MCF10A cells” value [1] of the same molecule?
Answer: did not change significantly; also recorded: without inhibitory effect
